This passage reports Kd results from PMC7669869 (2020).

The Kd is a measure of binding affinity in units of concentration. Higher therefore signals lower affinity.

The target in one test is JT006 (UniProt Q15848 155-161, Tyr159 was replaced with Ser | Asp was applied to substitute Ala161, unnatural amino acid Nva incorporated (position not given); FITC labeled peptide in the cell imaging). As to the kind of experiment: FRET; table row labelled IC50, legend says Kd.
For another test, the target named is ADP355. Description: FRET; table row labelled IC50, legend says Kd.

B1: AdipoR2 (overexpressed in HEK293 cells) (receptor)
chain: MNEPTENRLGCSRTPEPDIRLRKGHQLDGTRRGDNDSHQGDLEPILEASVLSSHHKKSSEEHEYSDEAPQEDEGFMGMSPLLQAHHAMEKMEEFVCKVWEGRWRVIPHDVLPDWLKDNDFLLHGHRPPMPSFRACFKSIFRIHTETGNIWTHLLGCVFFLCLGIFYMFRPNISFVAPLQEKVVFGLFFLGAILCLSFSWLFHTVYCHSEGVSRLFSKLDYSGIALLIMGSFVPWLYYSFYCNPQPCFIYLIVICVLGIAAIIVSQWDMFATPQYRGVRAGVFLGLGLSGIIPTLHYVISEGFLKAATIGQIGWLMLMASLYITGAALYAARIPERFFPGKCDIWFHSHQLFHIFVVAGAFVHFHGVSNLQEFRFMIGGGCSEEDAL
B1 yielded a Kd in the test with JT006 of 1.2 µM. This counts as single-digit micromolar.

B2: AdipoR1 (overexpressed in HEK293 cells) (receptor)
chain: MSSHKGSVVAQGNGAPASNREADTVELAELGPLLEEKGKRVIANPPKAEEEQTCPVPQEEEEEVRVLTLPLQAHHAMEKMEEFVYKVWEGRWRVIPYDVLPDWLKDNDYLLHGHRPPMPSFRACFKSIFRIHTETGNIWTHLLGFVLFLFLGILTMLRPNMYFMAPLQEKVVFGMFFLGAVLCLSFSWLFHTVYCHSEKVSRTFSKLDYSGIALLIMGSFVPWLYYSFYCSPQPRLIYLSIVCVLGISAIIVAQWDRFATPKHRQTRAGVFLGLGLSGVVPTMHFTIAEGFVKATTVGQMGWFFLMAVMYITGAGLYAARIPERFFPGKFDIWFQSHQIFHVLVVAAAFVHFYGVSNLQEFRYGLEGGCTDDTLL
Consider B2, for which the Kd was determined as 1.4 µM with JT006 and 1.1 µM with ADP355.
